PMC9700037

Columns and labels:
His6-tev-DPP9, Q86TI2 [1] = test: SEC-MALS; co-eluting SEC fractions of FIIND and DPP9 co-expressed in Sf9 WITHOUT the free UPA construct, co-purified; 0.5-1.0 mg/ml, Superose 6 increase (10/300) GL, buffer A without glycerol; conditions: remark: other sources report otherwise
[2] = biological target: T1, biotin-MBP-NLRP1 wt (Avi-MBP-tev-NLRP1) (human), Q9C000; test: SPR; Biotin-FLAG-NLRP1 (from HEK293T) or biotin-MBP-NLRP1 (from Sf9, multimer fraction) or biotin-MBP immobilised on a streptavidin chip; DPP9 injected at 78-2500 nM, single-cycle kinetics, 10 mM Hepes pH 7.5, 150 mM NaCl, 0.5 mM TCEP, 0.05% Tween-20; conditions: remark: other sources report otherwise
T1 chain: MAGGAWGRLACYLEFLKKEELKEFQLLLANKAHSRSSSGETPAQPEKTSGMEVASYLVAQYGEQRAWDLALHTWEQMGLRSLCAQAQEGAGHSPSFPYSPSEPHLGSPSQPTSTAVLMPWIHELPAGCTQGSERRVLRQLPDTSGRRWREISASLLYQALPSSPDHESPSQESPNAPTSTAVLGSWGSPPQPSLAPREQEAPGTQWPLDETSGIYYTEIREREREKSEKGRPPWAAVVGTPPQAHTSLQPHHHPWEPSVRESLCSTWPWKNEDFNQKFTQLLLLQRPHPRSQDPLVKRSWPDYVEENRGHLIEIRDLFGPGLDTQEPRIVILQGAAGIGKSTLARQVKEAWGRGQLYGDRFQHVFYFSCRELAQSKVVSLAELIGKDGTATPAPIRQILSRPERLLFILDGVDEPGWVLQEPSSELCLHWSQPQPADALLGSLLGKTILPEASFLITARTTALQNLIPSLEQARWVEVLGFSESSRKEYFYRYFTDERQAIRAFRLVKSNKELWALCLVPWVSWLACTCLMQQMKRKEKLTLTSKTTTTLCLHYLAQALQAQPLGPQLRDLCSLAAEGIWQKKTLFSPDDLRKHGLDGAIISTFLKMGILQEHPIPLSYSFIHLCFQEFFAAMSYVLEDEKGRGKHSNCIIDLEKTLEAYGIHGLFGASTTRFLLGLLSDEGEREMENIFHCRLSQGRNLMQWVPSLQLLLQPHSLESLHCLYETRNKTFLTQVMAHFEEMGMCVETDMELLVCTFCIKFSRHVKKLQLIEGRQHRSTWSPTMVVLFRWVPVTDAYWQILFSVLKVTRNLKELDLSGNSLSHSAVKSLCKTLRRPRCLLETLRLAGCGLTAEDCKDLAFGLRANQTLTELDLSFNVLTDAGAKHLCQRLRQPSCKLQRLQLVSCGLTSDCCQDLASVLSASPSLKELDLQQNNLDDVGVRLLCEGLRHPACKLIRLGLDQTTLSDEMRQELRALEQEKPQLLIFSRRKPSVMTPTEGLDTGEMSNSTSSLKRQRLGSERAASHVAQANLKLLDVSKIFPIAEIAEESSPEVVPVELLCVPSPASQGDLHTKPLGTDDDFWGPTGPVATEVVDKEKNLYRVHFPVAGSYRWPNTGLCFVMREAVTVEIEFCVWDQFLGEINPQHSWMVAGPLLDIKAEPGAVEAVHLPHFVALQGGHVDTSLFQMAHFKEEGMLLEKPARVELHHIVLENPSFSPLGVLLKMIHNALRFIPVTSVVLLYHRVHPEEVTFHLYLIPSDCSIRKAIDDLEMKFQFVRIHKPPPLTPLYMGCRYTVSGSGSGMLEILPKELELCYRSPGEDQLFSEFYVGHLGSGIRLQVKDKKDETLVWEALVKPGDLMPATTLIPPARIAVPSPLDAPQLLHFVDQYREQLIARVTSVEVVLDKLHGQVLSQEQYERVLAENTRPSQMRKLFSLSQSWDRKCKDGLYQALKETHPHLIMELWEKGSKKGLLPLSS

[3] = biological target: T2, Biotin-FLAG-NLRP1 wt (human), Q9C000; test: as above; conditions: remark: other sources report otherwise
T2 chain: T1 chain

[4] = biological target: T1, biotin-MBP-NLRP1 wt (Avi-MBP-tev-NLRP1) …; test: SPR; NLRP1 void (high MW) fraction; conditions: enzyme; chains chain; biotin (on the Avi tag, BirA co-expressed); remark: other sources report otherwise
His6-tev-DPP9, Q86TI2 [5] = test: SEC-MALS; co-eluting SEC fractions of FIIND, DPP9 and free UPA co-expressed in Sf9 and co-purified; 0.5-1.0 mg/ml, Superose 6 increase (10/300) GL, buffer A without glycerol; conditions: remark: other sources report otherwise
[6] = biological target: T1, biotin-MBP-NLRP1 wt (Avi-MBP-tev-NLRP1) …; test: SPR; 20-fold excess Val-boroPro (VbP); NLRP1 multimer; conditions: enzyme; chains chain; biotin (on the Avi tag, BirA co-expressed); remark: other sources report otherwise

- stoichiometry N (His6-tev-DPP9, Q86TI2 [1]): 2
- Kd [2]: 140 nM
- Kd [3]: 155 nM
- Kd [4]: 173 nM
- stoichiometry N (His6-tev-DPP9, Q86TI2 [5]): 2
- Kd [6]: 168 nM
B1: His6-tev-DPP9, Q86TI2 1-863 (protein)
chain: MATTGTPTADRGDAAATDDPAARFQVQKHSWDGLRSIIHGSRKYSGLIVNKAPHDFQFVQKTDESGPHSHRLYYLGMPYGSRENSLLYSEIPKKVRKEALLLLSWKQMLDHFQATPHHGVYSREEELLRERKRLGVFGITSYDFHSESGLFLFQASNSLFHCRDGGKNGFMVSPMKPLEIKTQCSGPRMDPKICPADPAFFSFINNSDLWVANIETGEERRLTFCHQGLSNVLDDPKSAGVATFVIQEEFDRFTGYWWCPTASWEGSEGLKTLRILYEEVDESEVEVIHVPSPALEERKTDSYRYPRTGSKNPKIALKLAEFQTDSQGKIVSTQEKELVQPFSSLFPKVEYIARAGWTRDGKYAWAMFLDRPQQWLQLVLLPPALFIPSTENEEQRLASARAVPRNVQPYVVYEEVTNVWINVHDIFYPFPQSEGEDELCFLRANECKTGFCHLYKVTAVLKSQGYDWSEPFSPGEDEFKCPIKEEIALTSGEWEVLARHGSKIWVNEETKLVYFQGTKDTPLEHHLYVVSYEAAGEIVRLTTPGFSHSCSMSQNFDMFVSHYSSVSTPPCVHVYKLSGPDDDPLHKQPRFWASMMEAASCPPDYVPPEIFHFHTRSDVRLYGMIYKPHALQPGKKHPTVLFVYGGPQVQLVNNSFKGIKYLRLNTLASLGYAVVVIDGRGSCQRGLRFEGALKNQMGQVEIEDQVEGLQFVAEKYGFIDLSRVAIHGWSYGGFLSLMGLIHKPQVFKVAIAGAPVTVWMAYDTGYTERYMDVPENNQHGYEAGSVALHVEKLPNEPNRLLILHGFLDENVHFFHTNFLVSQLIRAGKPYQLQIYPNERHSIRCPESGEHYEVTLLHFLQEYL
